Source: publication PMC11750101

Biological target: RBD-HR/trimer (SARS-CoV-2) (UniProt P0DTC2)
Test: SEC

RBD-HR/trimer (from UniProt P0DTC2)
stoichiometry N: 3
